Measured values reported in patent publication US20040137000A1 (UNITED BIOMEDICAL, published 2004).
Residue numbers refer to the chain shown, from its start.

B1: deimmunized B4 antibody DIVHv.3/VKv.2 produced by NS0 cells (antibody, human IgG1, V domains shown)
VH: QVQLVQSGAEVKKPGASVKVSCKASGYTFTDYVIHWVKQATGQGLEWIGEIYPGSGSAYSNAKFKDRVTITADKSTNTAYMELRSLRSDDTAVYFCARRGNGTGFAYWGQGTLVTVSS
VL: DIVLTQSPASLAVSPGQRATITCKAGQSVDYDGDSYMNWYQQKPGQPPKLLIYVASNLESGIPSRFSGSGSGTDFTLTINPVEENDTATYYCQQSYKDPLTFGQGTKVEIK
notes: Human IgG1 and human kappa constant regions; NS0 cells; also called DIVHv.3/V v.2; DIVH3/VK2
B2: deimmunized B4 antibody DIVHv.2/VKv.3 produced by NS0 cells (antibody, human IgG1, V domains shown)
VH: B1 VH with K38R
VL: B1 VL with T101A, Q104P
notes: Human IgG1 and human kappa constant regions; NS0 cells; also called DIVHv.2/V v.3; DIVH2/VK3
B3: deimmunized B4 antibody DIVHv.2/VKv.2 produced by NS0 cells (antibody, human IgG1, V domains shown)
VH: B1 VH with K38R
VL: B1 VL
notes: Human IgG1 and human kappa constant regions; NS0 cells; also called DIVHv.2/V v.2; DIVH2/VK2
B4: deimmunized B4 antibody DIVHv.3/VKv.1 produced by NS0 cells (antibody, human IgG1, V domains shown)
VH: B1 VH
VL: B1 VL with P15L, S64A, T78N, N80H, T87A, V108L
notes: Human IgG1 and human kappa constant regions; NS0 cells; also called DIVHv.3/V v.1; DIVH3/VK1
B5: deimmunized B4 antibody DIVHv.2/VKv.1 produced by NS0 cells (antibody, human IgG1, V domains shown)
VH: B1 VH with K38R
VL: B1 VL with P15L, S64A, T78N, N80H, T87A, V108L
notes: Human IgG1 and human kappa constant regions; NS0 cells; also called DIVHv.2/V v.1; DIVH2/VK1
B6: deimmunized B4 antibody DIVHv.4/VKv.2 produced by NS0 cells (antibody, human IgG1, V domains shown)
VH: B1 VH with K38R, A62S
VL: B1 VL
notes: Human IgG1 and human kappa constant regions; NS0 cells; also called DIVHv.4/V v.2
B7: deimmunized B4 antibody DIVHv.4/VKv.1 produced by NS0 cells (antibody, human IgG1, V domains shown)
VH: B1 VH with K38R, A62S
VL: B1 VL with P15L, S64A, T78N, N80H, T87A, V108L
notes: Human IgG1 and human kappa constant regions; NS0 cells; also called DIVHv.4/V v.1
B8: deimmunized B4 antibody DIVHv.3/VKv.3 produced by NS0 cells (antibody, human IgG1, V domains shown)
VH: B1 VH
VL: B1 VL with T101A, Q104P
notes: Human IgG1 and human kappa constant regions; NS0 cells; also called DIVHv.3/V v.3; DIVH3/VK3
B9: deimmunized B4 antibody DIVHv.4/VKv.3 produced by NS0 cells (antibody, human IgG1, V domains shown)
VH: B1 VH with K38R, A62S
VL: B1 VL with T101A, Q104P
notes: Human IgG1 and human kappa constant regions; NS0 cells; also called DIVHv.4/V v.3
B10: murine monoclonal antibody B4 (antibody, V domains shown)
VH: QVQLQQSGPELVKPGASVRMSCKASGYTFTDYVIHWVKQRTGQGLEWIGEIYPGSGSAYSNAKFKDKATLTADKSSNTAYMQLSSLTSEDSAVYFCARRGNGTGFAYWGQGTLVTVSA
VL: B1 VL with P15L, T22S, S64A, T78N, N80H, N85E, T87A, Q104A, V108L, I110L
B11: deimmunized B4 antibody DIVHv.1/VKv.1 produced by NS0 cells (antibody, human IgG1, V domains shown)
VH: B1 VH with A9P, V11L, I70M, T76S, R84S, R87T
VL: B1 VL with P15L, S64A, T78N, N80H, T87A, V108L
B12: deimmunized B4 antibody DIVHv.1/VKv.2 produced by NS0 cells (antibody, human IgG1, V domains shown)
VH: B1 VH with A9P, V11L, I70M, T76S, R84S, R87T
VL: B1 VL
B13: deimmunized B4 antibody DIVHv.1/VKv.3 produced by NS0 cells (antibody, human IgG1, V domains shown)
VH: B1 VH with A9P, V11L, I70M, T76S, R84S, R87T
VL: B1 VL with T101A, Q104P
B14: chimeric B4 antibody (antibody, human IgG1, V domains shown)
VH: B10 VH
VL: B1 VL with P15L, T22S, S64A, T78N, N80H, N85E, T87A, Q104A, V108L, I110L
notes: Fully murine B4 variable regions joined to human IgG1 and human kappa constant regions; also called B4 chimeric antibody; chimeric antibody

Each binder was assayed against T1, recombinant soluble CD4 (rsCD4) (UniProt P01730 26-396, limits assumed) (assay: ELISA on rsCD4).
T1 construct: Bought reagent coated on ELISA plates at 0.25 µg/ml; also called solid-phase rsCD4

| Binder | fold reduction in binding compared to the chimeric antibody [fold] |
| --- | --- |
| B1 | < 3 |
| B2 | 5 |
| B3 | < 3 |
| B4 | < 3 |
| B5 | < 3 |
| B6 | < 3 |
| B7 | < 3 |
| B8 | 5 |
| B9 | 5 |

These binders were tested against T2, CD4 on the surface of host T cells (HIV receptor complex involving CD4) (UniProt P01730 26-458, limits assumed) (assay: cell-based or functional assay).

| Binder | Antibody Conc (µg/ml) at 50% Inhibition; MT-2 microplaque neutralization, HIV-1 MN (H9 cells), clade B [µg/mL] | Antibody Conc (µg/ml) at 50% Inhibition; MT-2 microplaque neutralization, HIV-1 TH036 (PBL), clade E [µg/mL] | Antibody Conc (µg/ml) at 50% Inhibition; MT-2 microplaque neutralization, HIV-1 UG029 (PBL), clade A [µg/mL] | Antibody Conc (µg/ml) at 50% Inhibition; MT-2 microplaque neutralization, HIV-1 UG046 (PBL), clade D [µg/mL] | Antibody Conc (µg/ml) at 50% Inhibition; MT-2 microplaque neutralization, HIV-1 UG266 (PBL), clade D [µg/mL] | Antibody Conc (µg/ml) at 50% Inhibition; MT-2 microplaque neutralization, HIV-1 VL135 (PBL), clade B [µg/mL] | Antibody Conc (µg/ml) at 50% Inhibition; MT-2 microplaque neutralization, HIV-1 ZIM748 (PBL), clade C [µg/mL] |
| --- | --- | --- | --- | --- | --- | --- | --- |
| B10 | 14 | 0.25 | 0.44 | 0.4 | 0.4 | 0.16 | 0.21 |
| B4 | > 100 | 0.58 | 0.63 | 0.99 | 2.2 | 0.26 | 0.42 |
| B11 | > 100 | 0.31 | 0.47 | 2.1 | 0.82 | 0.21 | 0.45 |
| B5 | > 100 | 0.5 | 0.79 | 0.98 | 1.2 | 0.53 | 0.63 |
| B7 | > 100 | 0.35 | 0.35 | 1.1 | 7 | 0.26 | 0.28 |

Molecular target: T2, CD4 on the surface of host T cells (HIV …)
Test: cell-based or functional assay
Remark: another data set of the same source

| Binder | Antibody Conc (µg/ml) at 50% Inhibition; MT-2 microplaque neutralization, HIV-1 TH036 (PBL), clade E [µg/mL] | Antibody Conc (µg/ml) at 50% Inhibition; MT-2 microplaque neutralization, HIV-1 UG029 (PBL), clade A [µg/mL] | Antibody Conc (µg/ml) at 50% Inhibition; MT-2 microplaque neutralization, HIV-1 VL135 (PBL), clade B [µg/mL] |
| --- | --- | --- | --- |
| B1 | 0.7 | 0.92 | 0.35 |
| B10 | 0.24 | 0.28 | 0.17 |
| B12 | 0.51 | 0.73 | 0.24 |
| B13 | 0.77 | 1 | 0.39 |
| B2 | 0.62 | 1.2 | 0.67 |
| B3 | 0.63 | 0.73 | 0.23 |
| B6 | 0.32 | 0.48 | 0.3 |
| B8 | 0.44 | 1.1 | 0.62 |
| B9 | 0.63 | 1.1 | 0.48 |

The binders below were run against T1, recombinant soluble CD4 (rsCD4) (assay: ELISA, rsCD4 coated at 0.25 µg/ml).
Text: Tween® 20 in PBS. Various dilutions of the chimeric antibody and the mouse antibody as the positive control were applied. Detection was with peroxidase conjugated goat anti-human IgG and sheep anti-mouse for chimeric and mouse antibodies respectively. Color was developed with OPD.
Both the chimeric and mouse antibodies provided increases in A₄₉₂ at all concentrations of antibodies when added to the solid-phase rsCD4. This assay confirmed that the cloned and sequenced heavy and light chain variable regions retained the correct recognition site.

| Binder | fold reduction in A492 compared to the original mouse antibody [fold] |
| --- | --- |
| B14 | 10 |
